This note sets out measurements from patent EP4725966A1, “HUMAN EPIDERMAL GROWTH FACTOR 3 ANTIBODY, PREPARATION METHOD THEREFOR, AND USE THEREOF” (priority 2023, dated 2024).

In assay [1] the target is human HER3-ECD-His (human) (UniProt P21860). The assay is described as follows: ELISA on coated human HER3.
In assay [2] the target is human HER3 on cells (human) (UniProt P21860). Put plainly: FACS on Human HER3-CHO cells.
Assay [3] addresses cynomolgus HER3-ECD-His (cynomolgus monkey) (UniProt G7PIG5). Put plainly: ELISA on coated Cyno HER3. A general note: In an ELISA, binding on a coated surface is turned into a signal by an enzyme label.

Chain of cynomolgus HER3-ECD-His (cynomolgus monkey) (G7PIG5 entry or part of it): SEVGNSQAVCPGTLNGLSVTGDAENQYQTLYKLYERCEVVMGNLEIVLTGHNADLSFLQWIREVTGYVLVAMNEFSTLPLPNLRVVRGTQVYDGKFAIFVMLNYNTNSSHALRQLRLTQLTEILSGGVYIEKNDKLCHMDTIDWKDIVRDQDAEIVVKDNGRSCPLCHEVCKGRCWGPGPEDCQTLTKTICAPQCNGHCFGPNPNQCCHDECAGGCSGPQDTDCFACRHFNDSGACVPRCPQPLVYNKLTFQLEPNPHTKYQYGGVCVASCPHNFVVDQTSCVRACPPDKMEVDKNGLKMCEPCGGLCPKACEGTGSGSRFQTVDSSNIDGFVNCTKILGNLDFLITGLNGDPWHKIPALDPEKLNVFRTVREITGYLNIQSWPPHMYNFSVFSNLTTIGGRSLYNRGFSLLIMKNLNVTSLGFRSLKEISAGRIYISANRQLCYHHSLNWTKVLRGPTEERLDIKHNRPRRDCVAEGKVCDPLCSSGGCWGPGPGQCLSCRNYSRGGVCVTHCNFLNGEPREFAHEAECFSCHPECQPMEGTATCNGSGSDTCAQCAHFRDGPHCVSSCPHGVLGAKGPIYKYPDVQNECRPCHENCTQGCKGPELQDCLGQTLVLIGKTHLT

B1: mHE1 (antibody, V domains shown)
VH: EVKLQESGPGLVKPSQSLSLTCSVTGYSITSGYYWNWIRQFPGNKLEWMGYISYDGSNNYNPSLKNRISITRDTSKNQFFLNLNSVTTEDTATYYCARVDWDGDAMDYWGQGTSVTVSS
VL: DIVLTQSPASLAVSLGQRATISCRASESVDNYGIRLMHWYQQKSGQPPKLLIHRASNLESGIPARFSGSGSRTDFTLTINPVETDDVATYYCQQSNKDPFTFGSGTKLEIKR
With B1, the figures for the OD450 in assay [1] and in assay [3] were 1.86 OD450 and 1.77 OD450, respectively. Moreover, the MFI in assay [2] turned out to be 173 MFI.

B2: mHE5 (antibody, V domains shown)
VH: EVQLQESGPGLVKPSQSLSLTCSVTGYSITSGYYWNWIRQFPGNKLEWMGYISYDGSNNYNPSLKNRISITRDTSKNQFFLKLNSVTTEDTATYYCASYDYDGDWFAYWGQGTLVTVSA
VL: DIVLTQSPASLAVSLGQRATISCRASESVDHYGSSFMHWYQQKPGQPPKLLIYRASNPESGIPARFSGSGSRTDFTLTINPVETDDVATYYCQQSNKDPPTFGGGTKLEIKR
B2: the OD450 in assay [1] is 1.9 OD450; in assay [3] it was 1.82 OD450. In addition, in assay [2], the MFI is 224 MFI.

B3: mHE2 (antibody, V domains shown)
VH: EVKLQESGPGLVKPSQSLSLTCSVTGYSITSGYYWNWIRQFPGNKLEWMGYISYDGSNNYNPSLKNRISITRDTSKNQFFLKLNSVTTEDTATYYCARMDWDGDAMDYWGQGTSVTVSS
VL: DIVLTQSPASLAVSLGQRATISCRASESVDNYGISLMHWYQQKPGQPPKLLIYRASNLESGIPARFSGSGSRTDFTLTINPVETDDVATYYCQQSNKDPPTFGAGTKLELKR
Regarding B3, the OD450 came out at 1.96 OD450 in assay [1] and 1.77 OD450 in assay [3]. Further, the MFI in assay [2] was determined as 195 MFI.

B4: mHE6 (antibody, V domains shown)
VH: EVQLQQSGPDLVKPGTSVKMSCKASGYTFTDYYMHWVRQSHGKSLEWIGYINPNNGDAIYNQKFKGKATLTVNKSSTTAYMALRSLTSEDSAVYFCATYDYGGDFYFDVWGTGTTVTVSS
VL: DIELTQSPALMSASPGEKVTMTCSASSSVSYMYWYQQKPRSSPKPWIYLTSNLASGVPARFSGSGSGTSYSLTISSMEAEDAATYYCQQWSRNPLTFGAGTKLELKR
With B4, the OD450 in assay [1] came to 2.12 OD450; in assay [3], 1.51 OD450. Moreover, the MFI in assay [2] was found to be 205 MFI.

B5: mHE4 (antibody, V domains shown)
VH: EVQLVESGGGLVKPGGSLKLSCAASGFTFSSYVMSWVRQTPEKRLEWVATISDGDSSTYYPDNVKGRFTISRDNAKNNLFLQMSHLKSEDTAMYFCARDKGHGYDEGAFVYWGQGTLVTVSA
VL: DIQMTQSPASLSASVEETVTITCRASENIYSYLAWYQQKQGKSPQLLVYNAKTLAEGVPSRFSGSGSGTEFSLKINSLQPEDFGSYYCQNHYGTPYTFGGGTKLEIKQ
Take B5: the OD450 in assay [1] stood at 2.07 OD450; in assay [3], 1.87 OD450. This molecule also registered an MFI in assay [2] of 199 MFI.
